Measured values from patent CN116262787A (BOAOXIN BIOTECHNOLOGY NANJING CO LTD, dated 2023).
One block for each binder: values may come before it.

Assays:
[1] = molecular target: T1, 小鼠LAG-3-his (in-house, mouse LAG-3 Uniprot #Q61790, Gly24-Leu442) (mouse, UniProt Q61790 24-442); experiment: indirect ELISA, coated mouse LAG-3-his
T1 construct: range 24-442; also called 鼠LAG-3蛋白; not shown: his tag
T1 sequence (looked up): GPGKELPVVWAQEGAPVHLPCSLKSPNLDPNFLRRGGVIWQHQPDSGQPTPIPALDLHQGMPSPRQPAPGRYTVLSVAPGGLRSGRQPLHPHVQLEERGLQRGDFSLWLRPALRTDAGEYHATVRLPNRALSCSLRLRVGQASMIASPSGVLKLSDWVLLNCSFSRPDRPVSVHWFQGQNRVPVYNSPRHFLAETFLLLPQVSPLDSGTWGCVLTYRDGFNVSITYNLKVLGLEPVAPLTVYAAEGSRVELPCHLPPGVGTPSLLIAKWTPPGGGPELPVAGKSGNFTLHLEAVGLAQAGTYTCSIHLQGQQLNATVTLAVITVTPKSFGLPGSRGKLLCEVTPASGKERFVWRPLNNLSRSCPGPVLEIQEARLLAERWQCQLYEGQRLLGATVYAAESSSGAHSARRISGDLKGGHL

[2] = molecular target: T2, 人LAG-3 on the surface of a stable 293T cell line overexpressing it (human, UniProt P18627 23-525); experiment: flow cytometry on 293T cells overexpressing human LAG-3
T2 construct: whole, on cells; also called 表面过表达人LAG-3的293T细胞
T2 sequence (looked up): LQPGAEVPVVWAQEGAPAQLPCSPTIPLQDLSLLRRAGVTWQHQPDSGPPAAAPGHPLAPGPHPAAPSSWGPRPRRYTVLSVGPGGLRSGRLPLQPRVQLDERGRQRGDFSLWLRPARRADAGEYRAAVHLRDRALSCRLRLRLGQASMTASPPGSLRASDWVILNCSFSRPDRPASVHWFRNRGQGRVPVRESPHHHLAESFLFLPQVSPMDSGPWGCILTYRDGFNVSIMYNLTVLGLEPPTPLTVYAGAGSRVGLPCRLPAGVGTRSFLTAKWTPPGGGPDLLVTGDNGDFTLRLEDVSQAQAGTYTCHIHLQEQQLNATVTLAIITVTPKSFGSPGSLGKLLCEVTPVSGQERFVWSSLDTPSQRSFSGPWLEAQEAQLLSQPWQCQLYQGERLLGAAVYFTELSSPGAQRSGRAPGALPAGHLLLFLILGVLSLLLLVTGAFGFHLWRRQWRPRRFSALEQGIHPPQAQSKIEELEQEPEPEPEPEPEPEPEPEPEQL

[3] = molecular target: T3, 生物素标记的人LAG-3蛋白 (LAG-3-Fc-bio, cat#LA3-H82Fb, Acro) (human, UniProt P18627 23-450, biotin label (site not stated)); experiment: capture ELISA: antibody captured on GAM-Fab/GAH-Fab, LAG-3-Fc-bio in solution, SA-HRP
T3 construct: Bought protein (Acro LA3-H82Fb); also called 人LAG-3-Fc-bio; not shown: Fc part of the bought fusion
T3 sequence (looked up): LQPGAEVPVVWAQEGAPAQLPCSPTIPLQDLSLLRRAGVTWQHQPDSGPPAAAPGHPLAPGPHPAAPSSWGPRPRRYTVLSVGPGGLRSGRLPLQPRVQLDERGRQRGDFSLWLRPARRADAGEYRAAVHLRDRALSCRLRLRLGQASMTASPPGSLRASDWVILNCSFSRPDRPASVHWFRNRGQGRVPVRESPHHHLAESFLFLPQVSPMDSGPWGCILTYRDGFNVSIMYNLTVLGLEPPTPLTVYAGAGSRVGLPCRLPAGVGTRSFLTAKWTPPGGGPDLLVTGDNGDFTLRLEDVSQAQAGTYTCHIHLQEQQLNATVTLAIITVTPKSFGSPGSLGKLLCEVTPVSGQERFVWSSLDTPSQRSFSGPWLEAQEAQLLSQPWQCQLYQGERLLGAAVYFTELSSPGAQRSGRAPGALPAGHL

- binding result [2]: binds
- binding result [3]: binds
B1: 抗人LAG-3抗体G1A7 (mouse anti-human LAG-3 monoclonal antibody G1A7) (antibody, V domains shown)
VH: EVQLQQSGPVLVKPGASVKMSCKASGYTFTHYYMNWVKQSHGKSLEWIGVINPYNGDTSYKQNFKGKATLTVDKTSSTAYMDLNSLTSEDSAVYYCARDDGYYQWYFDVWGTGTTVTVSS
VL: DIQLTQSPSSLSASLGERVSLTCRASQDIGSRLIWLQQGPDGTIKRLIFATSSLDSGVPKRFSGSRSGSDYSLTISSLESEDFVDYYCLQCASSPPTFGGGTKLEIK
notes: Tested as the mouse monoclonal antibody purified from hybridoma culture; also called 本发明的抗体G1A7
- binding result [1]: no binding (tested: from 66.7nM, serial 5-fold dilution)

B2: Relatlimab (BRISTOL-MYERS SQUIBB COMPANY, BMS), reference antibody, prepared in-house (antibody, human IgG4 S228P, kappa, V domains shown)
VH: QVQLQQWGAGLLKPSETLSLTCAVYGGSFSDYYWNWIRQPPGKGLEWIGEINHRGSTNSNPSLKSRVTLSLDTSKNQFSLKLRSVTAADTAVYYCAFGYSDYEYNWFDPWGQGTLVTVSS
VL: EIVLTQSPATLSLSPGERATLSCRASQSISSYLAWYQQKPGQAPRLLIYDASNRATGIPARFSGSGSGTDFTLTISSLEPEDFAVYYCQQRSNWPLTFGQGTNLEIKR
notes: also called 参照抗体; 参照抗体Relatlimab
- binding result [1]: no binding (tested: from 66.7nM, serial 5-fold dilution)
